± gives the standard deviation.
Assay: protein stability index of a GFP-peptide fusion (GPS, HEK-293T) (PSI 1-6); higher = more stable
[1] = treatment: DMSO, c terminus: a fixed tail appended
[2] = treatment: MLN4924 1 uM, 8 h, c terminus: a fixed tail appended
[3] = treatment: DMSO, c terminus: native
[4] = treatment: MLN4924 1 uM, 8 h, c terminus: native
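Note: 24-mer peptide tiles fused after GFP, lentivirally expressed, FACS-sorted into six equal bins by GFP/DsRed ratio, decoded by Illumina sequencing, PSI is the read-weighted mean bin number.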

Row | Sequence | protein stability index [1] | protein stability index [2] | protein stability index [3] | protein stability index [4]
1 | KFSIPDLDRHQLPLDDALLSFAHA [DPCD] | 2.84 ± 0.21 | 2.94 ± 0.35 |  | 
2 | YKYGAIRDIDLKNRRGGPPFAFVE [SRSF1] | 2.38 ± 0.31 | 2.62 ± 0.36 |  | 
3 | CATGLLGSAPFLFLSLACARGSIV [SPNS1] | 3.02 ± 0.21 | 2.88 ± 0.28 |  | 
4 | TYECRCIGEEKEMWNFGEKYARF [TIA1] |  |  | 2.58 ± 0.59 | 2.93 ± 0.65
5 | SFARDLPDFPSINMDPAGLDDEDD [RETREG3] | 5.41 ± 0.32 | 5.49 ± 0.098 |  | 
6 | YRDYGHSRRDESYSRGYRNRRSSR [RBMY1A1] | 4.75 ± 0.14 | 4.79 ± 0.12 |  | 
7 | KYEKLRGDVAIKLKFLEENKIKVM [ARFIP2] | 2.22 ± 0.37 | 2.48 ± 0.27 |  | 
8 | GARYEVTVVSVRGFEESEPLTGFL [TNXB] | 2.53 ± 0.79 | 2.38 ± 0.59 |  | 
9 | GQTTGHPYYLRSFLVVLKTVLENE [FAN1] | 2.46 ± 0.5 | 2.21 ± 0.04 |  | 
10 | GERVVINISGLRFETQLKTLCQFP [KCNA3] | 2.61 ± 0.45 | 2.19 ± 0.083 |  | 
11 | LKDGYRLDEIPDDEDLDLIPPKSV [FAM219A] | 5.16 ± 0.15 | 5.3 ± 0.13 |  | 
12 | ESFFVDYEENEGAGPYLLNGSYLE [ADAMTSL2] | 3.658 ± 0.034 | 3.82 ± 0.072 |  | 
13 | VLSCEAATQTERRLDLAAVTLRRG [FAM189A2] | 4.25 ± 0.19 | 4.28 ± 0.34 |  | 
14 | ARALLEDDSDTQQVVVLVRDNGDP [PCDHGC5] | 4.82 ± 0.1 | 4.79 ± 0.46 |  | 
15 | TLPVLEASSWKKQVSHDFLETRFK [FBXO34] | 3.16 ± 0.66 | 3.1 ± 0.41 |  | 
16 | CRMSIRRVMPTQEVQELPIPSKLL [WSB1] | 2.42 ± 0.2 | 2.52 ± 0.2 |  | 
17 | NNPEYLRERNMAPDLRQDFNMMEQ [ADD1] | 4.74 ± 0.27 | 4.87 ± 0.18 |  | 
18 | KCDQPFFWNFKQMWDSKKIGLRQH [WDFY2] | 2.29 ± 0.36 | 2.65 ± 0.42 |  | 
19 | ASLHPSVSPGSPPPPLPNHKYNTT [PLAGL1] | 4.58 ± 0.14 | 4.586 ± 0.043 |  | 
20 | AVMEFHVSEDFNKMNFIKTYPAHQ [WDFY1] | 1.99 ± 0.32 | 1.93 ± 0.28 |  | 
21 | IRLQAELEEGENPVPAFQSDGTDE [SMG5] | 5.27 ± 0.14 | 5.12 ± 0.23 |  | 
22 | TLLLELEQDSGVQVEGLTVQYLGQ [ADAMTS4] | 2.87 ± 0.72 | 3.23 ± 0.38 |  | 
23 | TACSLPLCACLLGQKMLRHCGRT [PXN] |  |  | 3.03 ± 0.76 | 2.28 ± 0.4

Row | Sequence | protein stability index [1] | protein stability index [2] | protein stability index [3] | protein stability index [4]
24 | WVCFIYTIMSLASLLFVVMFIPET [SLC2A12] | 3.06 ± 0.83 | 2.74 ± 0.52 |  | 
25 | FTDTSIILFLNKKDLFEEKIKKSP [GNAI1] | 2.2 ± 0.97 | 2.35 ± 1.1 |  | 
26 | QNPTASYYNVVLLRYQFSRPGPQS [FCHO1] | 2.44 ± 0.46 | 2.41 ± 0.27 |  | 
27 | YLRFIVSRMKERAIDLNKKGKDNK [ZMYND11] | 2.63 ± 0.7 | 2.05 ± 0.3 |  | 
28 | RAKVKTDDIARIYQPKRYALSPKT [FAM98B] | 3.4 ± 0.26 | 3.5 ± 0.13 |  | 
29 | RGENLEHLRNKTEDLEATSEHFKT [VAMP8] | 5.43 ± 0.35 | 5.29 ± 0.12 |  | 
30 | TEQGFGEDLEDLGAVAPPVSGDLT [NFE2L1] | 5.388 ± 0.027 | 5.26 ± 0.55 |  | 
31 | TPETRAKFTQDNLCRAQRERLASA [TEKT4] | 4.17 ± 0.23 | 4.35 ± 0.35 |  | 
32 | KSLEIEEKINKIKWLPQQNAAHSL [PPP2R2C] | 3.66 ± 0.21 | 3.67 ± 0.13 |  | 
33 | GGLSLHDYKLLKPSLAVNLADPYR [JUNB] | 2.65 ± 0.13 | 2.76 ± 0.098 |  | 
34 | LQLFHQDGTFSPVTLALFFVLYFL [CLCN6] | 2.45 ± 0.64 | 2.13 ± 0.47 |  | 
35 | NHGFEVLYHSVKQGPISTKELADF [FCHO1] | 3.4 ± 0.15 | 3.29 ± 0.17 |  | 
36 | PAWNSKLQYILAQIGFSVGLGNIW [SLC6A17] | 2.83 ± 0.45 | 2.47 ± 0.12 |  | 
37 | QPPDMASALTDRTSRAPSTYTYTS [RSPH3] | 4.39 ± 0.17 | 4.51 ± 0.15 |  | 
38 | EEHWVGLKKEPGHPWKWSNGKEFN [CD69] | 3.19 ± 0.27 | 3.33 ± 0.21 |  | 
39 | VPVQPLLPESLARSLLPSTEYQKQ [FBF1] | 4.18 ± 0.18 | 4.58 ± 0.28 |  | 
40 | GVIDLFGDAFGSSASEPQPASQAA [SNAP91] | 3.98 ± 0.14 | 4.11 ± 0.17 |  | 
41 | PVRCAGDWLPRGLGWGGRGAAVCA [ALG2] | 2.57 ± 0.36 | 2.25 ± 0.27 |  | 
42 | KKHYRLQFYMFGWTHVTLLIVVTQ [CDS2] | 2.89 ± 0.55 | 2.58 ± 0.71 |  | 
43 | SSSSECLEDSTMGSVADTVARVLR [PLK2] | 4.08 ± 0.22 | 4.03 ± 0.34 |  | 
44 | TVETCRALGKLLPRETLCTELVLS [LRRC45] | 2.67 ± 0.25 | 2.55 ± 0.13 |  | 
45 | DVTAKNIWLAESVLDILTEQREWV [INTS3] | 2.3 ± 0.24 | 2.65 ± 0.33 |  | 
46 | RASYSDGKLKAPPKPCAGNQGTQI [MLH1] | 4.05 ± 0.53 | 4.17 ± 0.14 |  | 

Row | Sequence | protein stability index [1] | protein stability index [2] | protein stability index [3] | protein stability index [4]
47 | ASWAKPHYEFNLSRMKFRGNGALS [LCOR] | 2.56 ± 0.19 | 2.71 ± 0.24 |  | 
48 | HYICTLKQPHLLLEKYSYYLISG [PNLIPRP1] |  |  | 3.31 ± 0.66 | 3.39 ± 0.14
49 | LRYQFSRPGPQSVPLQLSAHWQCG [FCHO1] | 2.2 ± 0.09 | 2.12 ± 0.13 |  | 
50 | DNSLSSQNYISQKEDASEFQILKY [MIA2] | 3.94 ± 0.27 | 3.74 ± 0.6 |  | 
51 | YLYGILEERKNEMTQVITRTQEEK [TRIM55] | 3.6 ± 0.15 | 3.55 ± 0.31 |  | 
52 | GKNNEFSRLVAGEYLSFFDFSGLT [PSD2] | 2.13 ± 0.41 | 2.13 ± 0.32 |  | 
53 | SNKKRPSLDGRDPGNGTHGLSPEE [ELOA2] | 5.36 ± 0.27 | 5.33 ± 0.23 |  | 
54 | EIVGNLGEGTFGKVVECLDHARGK [CLK3] | 3.81 ± 0.1 | 3.97 ± 0.29 |  | 
55 | IGAFLNLVVLRFLTMNSEDERRDA [KCNK9] | 3.27 ± 0.77 | 3.02 ± 0.6 |  | 
56 | ASDIMEPNLTYVYPHTRIQSLVSI [CLCN6] | 2.38 ± 0.49 | 2.34 ± 0.38 |  | 
57 | KTERINALELLGATFVDKKRDLLG [FEM1C] | 3.23 ± 0.1 | 3.4 ± 0.22 |  | 
58 | NDRGDHYHWKDLNRGINITIYGKT [EFHC1] | 2.5 ± 0.17 | 2.39 ± 0.54 |  | 
59 | MSEGKPPDKKKRPRRSLSISKNKK [FAN1] | 5.08 ± 0.17 | 5.07 ± 0.21 |  | 
60 | QGYVSDIRRFLSAFHEPQVGLIQA [DFFB] | 2.15 ± 0.47 | 2.38 ± 0.17 |  | 
61 | KADENNGFGSKNTAFCTHVFPETA [TBX5] | 4.01 ± 0.47 | 3.86 ± 0.2 |  | 
62 | PGQVAGADFESEDEGEEFDDWEDD [EID1] | 5.52 ± 0.59 | 5.59 ± 0.2 |  | 
63 | SRYLGDSGLDDFFLDIDTSAVEKE [SERTAD3] | 5.31 ± 0.12 | 4.9 ± 0.55 |  | 
64 | SVSREARQTVPPLTVRLHTQSVSE [PWWP2B] | 4.29 ± 0.23 | 4.42 ± 0.28 |  | 
65 | MRAPMLQKQQAPRMDTPPPEERLE [CCDC89] | 5.21 ± 0.24 | 5.29 ± 0.29 |  | 
66 | NECEITKRRRKSCQACRFMKCLKV [ESRRG] | 2.57 ± 0.056 | 2.95 ± 0.38 |  | 
67 | GTAGPLALARDLLSETADPFFVLN [GMPPB] | 3.18 ± 0.31 | 3.23 ± 0.27 |  | 
68 | QIVLLKSSAIEVIMLRSNESFTMD [VDR] | 2.6 ± 0.7 | 2.44 ± 0.4 |  | 
69 | SKATFSRNIMNLIDIVAIIPYFIT [KCNA3] | 3.16 ± 0.52 | 3.32 ± 0.76 |  | 

Row | Sequence | protein stability index [1] | protein stability index [2] | protein stability index [3] | protein stability index [4]
70 | DRISTTFRLTTLLMSGCSSELKNR [PLK2] | 2.19 ± 0.46 | 2.43 ± 0.18 |  | 
71 | LIDRSGRHFGTILNYLRDGSVPLP [KCTD13] | 2.37 ± 0.28 | 2.46 ± 0.32 |  | 
72 | FMEERELLGQDEETAMRKSLGEEE [RSPH3] | 5.58 ± 0.12 | 5.46 ± 0.4 |  | 
73 | NLTRRFSDLGFEVKCFNDLKAEEL [CASP6] | 2.76 ± 0.46 | 3 ± 0.27 |  | 
74 | QTTYLEDRPMFMLQCAMEENCLSA [LOXL2] | 2.38 ± 0.59 | 2.33 ± 0.43 |  | 
75 | DAEFLCVFCREGPTHQAHTVGFLD [TRIM15] | 2.31 ± 0.27 | 2.34 ± 0.33 |  | 
76 | RERAVEWRERAVEKRERALEEVER [ZBED2] | 4.9 ± 0.71 | 5.08 ± 0.29 |  | 
77 | PGSASLAQSRLEDPGADSEKSTVV [DLX1] | 5.49 ± 0.38 | 5.36 ± 0.26 |  | 
78 | QRSHMGKLKEPQPQDHKPGLGAS |  |  | 3.13 ± 0.88 | 3.63 ± 0.56
79 | AGSTDDRIVVPQRGRSTRVPVASV [SPNS1] | 4.22 ± 0.077 | 4.39 ± 0.45 |  | 
80 | APSKEEMLSWILRINLVAAIFSAP [PSD2] | 2.71 ± 0.32 | 3.03 ± 0.62 |  | 
81 | VNKYYPPDFNPEKHGSLNRYHNSH [YJU2B] | 3.41 ± 0.21 | 3.21 ± 0.39 |  | 
82 | NTVERYNPQENRWHTIAPMGTRRK [KLHL20] | 4.43 ± 0.15 | 4.59 ± 0.17 |  | 
83 | QNLCKGLSQPTTNLVAGCLQLNAR [NEUROD6] | 2.97 ± 0.2 | 3.15 ± 0.23 |  | 
84 | ELFKKDPGFDRGQFHKQIAVMRGQ [PI4K2A] | 2.8 ± 0.33 | 3.03 ± 0.19 |  | 
85 | AIDQYRVCQEVLERSRDVVDEVSV [RHOBTB1] | 4.61 ± 0.21 | 4.32 ± 0.15 |  | 
86 | VKSVSPQGNSVDRMAAPRAEALFD [NCF4] | 4.35 ± 0.14 | 4.71 ± 0.14 |  | 
87 | NLRAAGAEALGKLLQQNKSIQSLT [LRRC45] | 3.26 ± 0.19 | 3.33 ± 0.19 |  | 
88 | AASTAAALENLQVEASCSVCLEYL [TRIM39] | 2.74 ± 0.37 | 2.81 ± 0.48 |  | 
89 | GATALHFAAEAGHIDIVKELIKWR [FEM1B] | 2.39 ± 0.35 | 2.43 ± 0.33 |  | 
